Measurements taken from patent publication US20240124560A1 (Scripps Research, published 2024).

How the values were obtained:
HIV-2 C3 chimera Env = HIV-2 C3 chimera Env (HIV-2 (HIV-1 MPER) chimera); experiment: cell-based or functional assay
HIV-1 Du156.12 Env [1] = target: HIV-1 Du156.12 Env (HIV-1 Du156.12); experiment: cell-based or functional assay
HIV-2 C4 chimera Env = HIV-2 C4 chimera Env (HIV-2 (HIV-1 MPER) chimera); experiment: cell-based or functional assay
HIV-2 C1 chimera Env = HIV-2 C1 chimera Env (HIV-2 (HIV-1 MPER) chimera); experiment: cell-based or functional assay
[2] = target: HIV-2 Env (parental virus of the chimeras) (HIV-2); experiment: cell-based or functional assay
HIV-1 HxB2 Env [3] = target: T1, HIV-1 HxB2 Env (HIV-1 HxB2, UniProt P04578 33-856); experiment: BN-PAGE mobility shift of HxB2 Env with Fab, relative shift
HIV-1 HxB2 Env [4] = target: T1, HIV-1 HxB2 Env; experiment: cell-based or functional assay
HIV-1 Du156.12 Env [5] = target: HIV-1 Du156.12 Env (HIV-1 Du156.12); experiment: cell-based or functional assay; remark: listed apart in the source
HIV-1 HxB2 Env [6] = target: T1, HIV-1 HxB2 Env; experiment: cell-based or functional assay; remark: listed apart in the source
HIV-1 Du156.12 Env [7] = target: HIV-1 Du156.12 Env (HIV-1 Du156.12); experiment: cell-based or functional assay; remark: listed apart in the source

B1: PGZL1 (antibody, V domains shown)
VH: EVQLVQSGGEVKRPGSSVTVSCKATGGTFSTLAFNWVRQAPGQGPEWMGGIVPLFSIVNYGQKFQGRLTIRADKSTTTVFLDLSGLTSADTATYYCAREGEGWFGKPLRAFEFWGQGTVITVSS
VL: DVVMTQSPGTLSLSPGERATLSCRASQSVSGGALAWYQQKPGQAPRLLIYDTSSRPTGVPGRFSGSGSGTDFSLTISRLEPEDFAVYYCQQYGTSQSTFGQGTRLEIK
- IC50 (µg/ml), neutralization of chimeric virus (HIV-2 C3 chimera Env): > 10 µg/mL
- IC50 (µg/ml), neutralization of HIV-1 Du156.12 (HIV-1 Du156.12 Env [1]): 0.623 µg/mL
- IC50 (µg/ml), neutralization of chimeric virus (HIV-2 C4 chimera Env): 2.38 µg/mL
- IC50 (µg/ml), neutralization of chimeric virus (HIV-2 C1 chimera Env): 0.98 µg/mL
- IC50 (µg/ml), neutralization of HIV-2 [2]: > 10 µg/mL

B2: PGZL1 Fab (Fab, V domains shown)
VH: EVQLVQSGGEVKRPGSSVTVSCKATGGTFSTLAFNWVRQAPGQGPEWMGGIVPLFSIVNYGQKFQGRLTIRADKSTTTVFLDLSGLTSADTATYYCAREGEGWFGKPLRAFEFWGQGTVITVSS
VL: DVVMTQSPGTLSLSPGERATLSCRASQSVSGGALAWYQQKPGQAPRLLIYDTSSRPTGVPGRFSGSGSGTDFSLTISRLEPEDFAVYYCQQYGTSQSTFGQGTRLEIK
notes: also called Fab PGZL1
- binding result (HIV-1 HxB2 Env [3]): binds

B3: PGZL1_W99A (antibody, V domains shown)
VH: QVQLVQSGGEVKRPGSSVTVSCKATGGTFSTLAFNWVRQAPGQGPEWMGGIVPLFSIVNYGQKFQGRLTIRADKSTTTVFLDLSGLTSADTATYYCAREGEGAFGKPLRAFEFWGQGTVITVSS
VL: DVVMTQSPGTLSLSPGERATLSCRASQSVSGGALAWYQQKPGQAPRLLIYDTSSRPTGVPGRFSGSGSGTDFSLTISRLEPEDFAVYYCQQYGTSQSTFGQGTRLEIK
- decrease in neutralization against the parent antibody (HIV-1 HxB2 Env [4]): > 10 fold
- decrease in neutralization against the parent antibody (HIV-1 Du156.12 Env [5]): > 10 fold

B4: PGZL1_F100A (antibody, V domains shown)
VH: QVQLVQSGGEVKRPGSSVTVSCKATGGTFSTLAFNWVRQAPGQGPEWMGGIVPLFSIVNYGQKFQGRLTIRADKSTTTVFLDLSGLTSADTATYYCAREGEGWAGKPLRAFEFWGQGTVITVSS
VL: DVVMTQSPGTLSLSPGERATLSCRASQSVSGGALAWYQQKPGQAPRLLIYDTSSRPTGVPGRFSGSGSGTDFSLTISRLEPEDFAVYYCQQYGTSQSTFGQGTRLEIK
- decrease in neutralization against the parent antibody (HIV-1 HxB2 Env [4]): > 10 fold
- decrease in neutralization against the parent antibody (HIV-1 Du156.12 Env [5]): > 10 fold

B5: PGZL1_gVmDmJ F100A (antibody, V domains shown)
V domain 1: QVQLVQSGAEVKKPGSSVKVSCKASGGTFSSYAISWVRQAPGQGLEWMGGIIPIFGTANYAQKFQGRVTITADKSTSTAYMELSSLRSEDTAVYYCAREGEGWAGKPLRAFEFWGQGTVITVSS
V domain 2: not shown
- decrease in neutralization against the parent antibody (HIV-1 HxB2 Env [4]): > 10 fold
- decrease in neutralization against the parent antibody (HIV-1 Du156.12 Env [5]): > 10 fold

B6: PGZL1_gVmDmJ_W99A (antibody, V domains shown)
V domain 1: QVQLVQSGAEVKKPGSSVKVSCKASGGTFSSYAISWVRQAPGQGLEWMGGIIPIFGTANYAQKFQGRVTITADKSTSTAYMELSSLRSEDTAVYYCAREGEGAFGKPLRAFEFWGQGTVITVSS
V domain 2: not shown
- decrease in neutralization against the parent antibody (HIV-1 HxB2 Env [4]): > 10 fold
- decrease in neutralization against the parent antibody (HIV-1 Du156.12 Env [5]): > 10 fold

B7: PGZL1_gVgDgJ Fab (Fab, V domains shown)
VH: QVQLVQSGAEVKKPGSSVKVSCKASGGTFSSYAISWVRQAPGQGLEWMGGIIPIFGTANYAQKFQGRVTITADKSTSTAYMELSSLRSEDTAVYYCAREGEGWFGEPLRAFDVWGQGTVITVSS
VL: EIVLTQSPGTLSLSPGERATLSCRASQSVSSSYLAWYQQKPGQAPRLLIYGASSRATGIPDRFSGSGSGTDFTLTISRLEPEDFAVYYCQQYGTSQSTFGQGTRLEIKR
- binding result (HIV-1 HxB2 Env [3]): binds

B8: H4K3_SFS28EPE (antibody, V domains shown)
VH: KVQLVQSGAELKKPWSSVRVSCKASGGEPESYAFNWVRQAPGQRLEWLGGIVPLVSSTNYAQRFRGRVTISADRSTSTVYLEMTGLTSADTAVYFCAREGEGWFGRPLRAFEFWGQGTLVTVST
VL: EIVLTQSPGTFALSPGERATLSCRASQSVSGGALAWYQQKAGQAPRLLIYDTSGRATGVPGRFSGSGSETDFSLTISRLEPEDFAVYYCQQYGTSQSTFGQGTRLETR
- Fold Increase (neutralization IC50 over H4K3), HxB2 (HIV-1 HxB2 Env [6]): 16.4 fold
- IC50, neutralization of HxB2 pseudovirus (HIV-1 HxB2 Env [6]): 1.62 µg/mL
- Fold Increase (neutralization IC50 over H4K3), Du156.12 (HIV-1 Du156.12 Env [7]): 26.3 fold
- IC50, neutralization of Du156.12 pseudovirus (HIV-1 Du156.12 Env [7]): 2.89 µg/mL

B9: H4K3_5M (antibody, V domains shown)
VH: KVQLVQSGAELKKPWSSVRVSCKASGGEPESYAFNWVRQAPGQRLEWLGGIVPLVSSTNYAQRFRGRVTISADPETSTVYLEMTGLTSADTAVYFCAREGEGWFGRPLRAFEFWGQGTLVTVST
VL: EIVLTQSPGTFALSPGERATLSCRASQSVSGGALAWYQQKAGQAPRLLIYDTSGRATGVPGRFSGSGSETDFSLTISRLEPEDFAVYYCQQYGTSQSTFGQGTRLETR
- Fold Increase (neutralization IC50 over H4K3), HxB2 (HIV-1 HxB2 Env [6]): 37.7 fold
- IC50, neutralization of HxB2 pseudovirus (HIV-1 HxB2 Env [6]): 3.72 µg/mL
- Fold Increase (neutralization IC50 over H4K3), Du156.12 (HIV-1 Du156.12 Env [7]): 84.5 fold
- IC50, neutralization of Du156.12 pseudovirus (HIV-1 Du156.12 Env [7]): 9.31 µg/mL

B10: H4K3_RS73PE (antibody, V domains shown)
VH: KVQLVQSGAELKKPWSSVRVSCKASGGSFSSYAFNWVRQAPGQRLEWLGGIVPLVSSTNYAQRFRGRVTISADPETSTVYLEMTGLTSADTAVYFCAREGEGWFGRPLRAFEFWGQGTLVTVST
VL: EIVLTQSPGTFALSPGERATLSCRASQSVSGGALAWYQQKAGQAPRLLIYDTSGRATGVPGRFSGSGSETDFSLTISRLEPEDFAVYYCQQYGTSQSTFGQGTRLETR
- Fold Increase (neutralization IC50 over H4K3), HxB2 (HIV-1 HxB2 Env [6]): 3 fold
- IC50, neutralization of HxB2 pseudovirus (HIV-1 HxB2 Env [6]): 0.299 µg/mL
- Fold Increase (neutralization IC50 over H4K3), Du156.12 (HIV-1 Du156.12 Env [7]): 7.4 fold
- IC50, neutralization of Du156.12 pseudovirus (HIV-1 Du156.12 Env [7]): 0.814 µg/mL

B11: PGZL1.H4K3 (antibody, V domains shown)
VH: KVQLVQSGAELKKPWSSVRVSCKASGGSFSSYAFNWVRQAPGQRLEWLGGIVPLVSSTNYAQRFRGRVTISADRSTSTVYLEMTGLTSADTAVYFCAREGEGWFGRPLRAFEFWGQGTLVTVST
VL: EIVLTQSPGTFALSPGERATLSCRASQSVSGGALAWYQQKAGQAPRLLIYGTSGRATGVPGRFSGSGSETDFSLTISRLEPEDFAVYYCQQYGTSQSTFGQGTRLETR
- IC50 (µg/ml), neutralization of chimeric virus (HIV-2 C3 chimera Env): > 10 µg/mL
- IC50 (µg/ml), neutralization of HIV-1 Du156.12 (HIV-1 Du156.12 Env [1]): 0.27 µg/mL
- IC50 (µg/ml), neutralization of chimeric virus (HIV-2 C4 chimera Env): 1.17 µg/mL
- IC50 (µg/ml), neutralization of HIV-2 [2]: > 10 µg/mL
- IC50, neutralization of HxB2 pseudovirus (HIV-1 HxB2 Env [6]): 0.099 µg/mL
- IC50, neutralization of Du156.12 pseudovirus (HIV-1 Du156.12 Env [7]): 0.11 µg/mL
